Consider 1 molecule from patent publication US20110014656A1 (ZymoGenetics, published 2011).

Several values for one entry are separate records, joined by “and”; a condition that tells them apart may be missing. Equal values may be shown once.

Test [1] concerns the target T1, IL17A-CH6/IL17F-CEE 2 chain heterodimer (human, UniProt Q16552 24-155; Q96PD4 31-163).
T1 construct: The entries may include a signal peptide; also called IL-17A/F heterodimer; zcyto40f2v.1-2chain
T1 sequence 1: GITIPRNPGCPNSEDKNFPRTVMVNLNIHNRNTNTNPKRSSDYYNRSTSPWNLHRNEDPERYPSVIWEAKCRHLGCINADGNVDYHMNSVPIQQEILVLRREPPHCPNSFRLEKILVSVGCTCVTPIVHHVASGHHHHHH
T1 sequence 2: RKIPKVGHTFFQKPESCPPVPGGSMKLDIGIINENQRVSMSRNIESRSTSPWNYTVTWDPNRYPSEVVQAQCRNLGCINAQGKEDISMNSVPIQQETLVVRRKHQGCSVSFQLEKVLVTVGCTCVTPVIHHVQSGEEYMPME
The test is described as follows: Biacore T100, receptor captured by anti-human IgG Fc-gamma on CM4 chip; kd1 of the bivalent analyte model. The method, then: (§1) The binding kinetics and affinity study was performed on a Biacore T100™ system (GE Healthcare, Piscataway, N.J.). Methods for the Biacore T100™ were programmed using Biacore T100™ Control Software, v 1.1.1. […] The capture antibody was covalently immobilized to a CM4 sensor chip using a mixture of 0.4 M EDC [N-ethyl-N′-(3-[…])carbodiimide] and 0.1 M NHS (N-hydroxysuccinimide) to a density of approximately 4000 RU. […] Capture of the receptor to the immobilized surface was performed at a flow rate of 10 μL/min. The Biacore instrument measures the mass of protein bound to the sensor chip surface, and thus, capture of the soluble receptor was verified for each analysis cycle.
(§2) Between analysis cycles, the flow cell was washed with 20 mM hydrochloric acid to regenerate the surface. […] Data was compiled using the Biacore T100™ Evaluation software (version 1.1.1). Data was processed by subtracting reference flow cell and blank injections. Baseline stability was assessed to ensure that the regeneration step provided a consistent binding surface throughout the sequence of injections. Duplicate injection curves were checked for reproducibility. […] If only one portion of the heterodimer binds to the receptor, a simple 1:1 binding model would be appropriate and the curves should fit well to this model. […]
(In general: SPR reads the build-up and loss of mass on a sensor chip optically.)

The target in test [2] is T1, IL17A-CH6/IL17F-CEE 2 chain heterodimer. The test is described as follows: Biacore T100, receptor captured by anti-human IgG Fc-gamma on CM4 chip; KD1 of the bivalent analyte model. The method, then:
as §1, §2

Test [3] has as its target T2, human IL-17A (human, UniProt Q16552 24-155).
T2 construct: also called hIL-17A; hIL17A
T2 sequence: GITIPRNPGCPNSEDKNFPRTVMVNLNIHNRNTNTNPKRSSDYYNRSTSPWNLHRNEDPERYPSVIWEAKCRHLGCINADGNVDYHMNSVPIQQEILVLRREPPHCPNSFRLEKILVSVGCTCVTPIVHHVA
Description: Biacore, receptor captured by anti-human IgG Fc on CM5 chip, ligand as analyte. The text has this:
(§3) The protocol was optimized to capture receptor at a theoretical binding max. before injecting a concentration series of each ligand to observe association and dissociation. […] The surface was regenerated with 2×30 sec. injections of pH 1.75 glycine between cycles.

For test [4], the target named is T3, human IL-17F (human, UniProt Q96PD4 31-163).
T3 construct: also called hIL-17F; hIL17F
T3 sequence: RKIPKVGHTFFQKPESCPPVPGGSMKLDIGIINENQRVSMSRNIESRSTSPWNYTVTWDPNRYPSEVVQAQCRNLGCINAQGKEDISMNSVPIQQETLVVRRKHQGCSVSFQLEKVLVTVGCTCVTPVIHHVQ
The description is as above.
Text: as §3

Test [5] deals with T2, human IL-17A. The test is described as follows: cell-based or functional assay.
Test [6] has as its target T3, human IL-17F. Description: cell-based or functional assay.
Test [7] deals with T1, IL17A-CH6/IL17F-CEE 2 chain heterodimer. Description: Biacore T100, receptor captured by anti-human IgG Fc-gamma on CM4 chip; KA1 of the bivalent analyte model. The procedure:
as §1, §2

In test [8] the target is T2, human IL-17A. Description: cell-based or functional assay. The source holds these as a separate data set.
For test [9], the target named is single chain human IL17A:IL17F heterodimer (human). Description: cell-based or functional assay.
Test [10] addresses T1, IL17A-CH6/IL17F-CEE 2 chain heterodimer. The test is described as follows: cell-based or functional assay.
Test [11] addresses T3, human IL-17F. Description: cell-based or functional assay. The source holds these as a separate data set.
The target of test [12] is T1, IL17A-CH6/IL17F-CEE 2 chain heterodimer. The test is described as follows: Biacore T100, receptor captured by anti-human IgG Fc-gamma on CM4 chip; ka1 of the bivalent analyte model. The procedure: as §1, §2
For test [13], the target named is T2, human IL-17A. Description: Biacore, summary of Table 11.
Text: as §3

Test [14] has as its target T3, human IL-17F. Description: Biacore, summary of Table 11.
Text: as §3

B1: Variant 1454, soluble IL-17RC/IL-17RA polypeptide fused to Fc5 (Fc fusion)
chain: LRLLDHRALVCSQPGLNCTVKNSTCLDDSWIHPRNLTPSSPKDLQIQLHFAHTQQGDLFPVAHIEWTLQTDASILYLEGAELSVLQLNTNERLCVRFEFLSKLRHHHRRWRFTFSHFVVDPDQEYEVTVHHLPKPIPDGDPNHQSKNFLVPDCEHARMKVTTPCMSSALPWLNVSADGDNVHLVLNVSEEQHFGLSLYWNQVQGPPKPRWHKNLTGPQIITLNHTDLVPCLCIQVWPLEPDSVRTNICPFREDPRAHQNLWQAARLRLLTLQSWLLDAPCSLPAEAALCWRAPGGDPCQPLVPPLSWENVTVDKVLEFPLLKGHPNLCVQVNSSEKLQLQECLWADSLGPLKDDVLLLETRGPQDNRSLCALEPSGCTSLPSKASTRAARLGEYLLQDLQSGQCLQLWDDDLGALWACPMDKYIHKEPKSSDKTHTCPPCPAPEAEGAPSVFLFPPKPKDTLMISRTPEVTCVVVDVSHEDPEVKFNWYVDGVEVHNAKTKPREEQYNSTYRVVSVLTVLHQDWLNGKEYKCKVSNKALPSSIEKTISKAKGQPREPQVYTLPPSRDELTKNQVSLTCLVKGFYPSDIAVEWESNGQPENNYKTTPPVLDSDGSFFLYSKLTVDKSRWQQGNVFSCSVMHEALHNHYTQKSLSLSPGK
notes: also called IL-17RA/RC-Fc5; IL17RA/RC 1454
As a reminder, the koff is the rate constant with which the complex falls apart. For orientation: kon means a measure of how fast the partners come together. Low values mean slower complex formation, high ones faster complex formation. Take B1: the koff is 0.002 s⁻¹ in test [1]; 6.22e-05 s⁻¹ and 9.95e-05 s⁻¹ in test [3]; 0.000261 s⁻¹ and 0.000315 s⁻¹ in test [4]. For the same molecule, the Kd was 4 nM in test [2]; 0.0439 nM and 0.0382 nM in test [3]; 0.143 nM and 0.126 nM in test [4]; approximately 0.04 nM in test [13]; approximately 0.14 nM in [14]. The kon in test [3] is 1.42e+06 M⁻¹ s⁻¹ and 2.61e+06 M⁻¹ s⁻¹; in test [4], 1.82e+06 M⁻¹ s⁻¹ and 2.49e+06 M⁻¹ s⁻¹; in test [12] it was 500000 M⁻¹ s⁻¹. Moreover, the “IC50, huIL-17A(10 ng/ml) induction of G-CSF in SAEC” value in test [5] was 0.14 µg/mL. Moreover, the “IC50, huIL-17A(10 ng/ml) induction of IL-8 in SAEC” value in [5] was 0.03 µg/mL. Further, the “IC50, huIL-17F(50 ng/ml) induction of G-CSF in SAEC” value in test [6] was 1.2 µg/mL. Besides, the “IC50, huIL-17F(50 ng/ml) induction of IL-8 in SAEC” value in [6] was determined as 0.57 µg/mL. Besides, in [7], the Ka is 2e+08 M⁻¹. Also, the “IC50, NIH-3T3/KZ170 luciferase reporter neutralization assay” value was determined as 0.167 nM in test [8], 13.3 nM in test [9], 3.17 nM in test [10] and 0.874 nM in [11]. In addition, the “IC50, luciferase in hIL-17RA/NIH3T3/KZ142.8 cells, 0.5 ng/ml IL-17A” value in [8] was 0.001 µg/mL. Also, in test [11], the “IC50, luciferase in hIL-17RA/NIH3T3/KZ142.8 cells, 20 ng/ml IL-17F” value is 0.48 µg/mL. In addition, the “IC50, luciferase in hIL-17RCX4/NIH3T3/KZ142.8 cells, 1 ng/ml IL-17F” value in test [11] amounted to 0.8 µg/mL.
